Data as given in article PMC9381713, “Structural features of Dnase1L3 responsible for serum antigen clearance”.

How the values were obtained:
Dnase1 = test: fluorescence polarization; settings: FP: 50 mM Hepes pH 7.5 (Results say pH 7.4), 100 mM NaCl, 0.1 mM EDTA (1 mM for Dnase1L3/Dnase1), 1% glycerol, 1 mM TCEP, 0.1% PEG 6000, 20 nM dsDNA, 30 min at …
[1] = target: T1, Dnase1L3 CTD peptide (cleaved from SH3-CTD) (human, UniProt Q13609); test: fluorescence polarization; 100 mM NaCl, 0.1 mM EDTA; FP: 50 mM Hepes pH 7.5 (Results say pH 7.4), 100 mM NaCl, 0.1 mM EDTA (1 mM for Dnase1L3/Dnase1), 1% glycerol, 1 mM TCEP, 0.1% PEG 6000, 20 nM dsDNA, 30 min at; settings: protein: recombinant; tags: TEV-cleaved from His-SH3 fusion; label: 5'-FAM on strand 1; blunt
T1 chain: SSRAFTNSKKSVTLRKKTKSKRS

Dnase1L3 R132A = target: T2, Dnase1L3 R132A (human, UniProt Q13609 21-305, R132A); test: fluorescence polarization; 1 mM EDTA; FP: 50 mM Hepes pH 7.5 (Results say pH 7.4), 100 mM NaCl, 0.1 mM EDTA (1 mM for Dnase1L3/Dnase1), 1% glycerol, 1 mM TCEP, 0.1% PEG 6000, 20 nM dsDNA, 30 min at; settings: protein: recombinant; blunt
T2 sequence: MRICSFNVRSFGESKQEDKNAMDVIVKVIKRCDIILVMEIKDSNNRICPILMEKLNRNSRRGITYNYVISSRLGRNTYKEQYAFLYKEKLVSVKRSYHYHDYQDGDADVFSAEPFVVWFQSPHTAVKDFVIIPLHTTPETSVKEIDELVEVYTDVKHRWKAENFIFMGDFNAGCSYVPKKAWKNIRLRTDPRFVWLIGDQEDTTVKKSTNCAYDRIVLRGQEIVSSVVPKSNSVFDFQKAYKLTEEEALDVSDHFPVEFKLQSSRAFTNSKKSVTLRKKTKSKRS

Dnase1L3 WT = target: T3, Dnase1L3 WT (human, UniProt Q13609 21-305); test: as above; settings: protein: recombinant; tags: His-MBP removed by TEV; blunt
T3 sequence: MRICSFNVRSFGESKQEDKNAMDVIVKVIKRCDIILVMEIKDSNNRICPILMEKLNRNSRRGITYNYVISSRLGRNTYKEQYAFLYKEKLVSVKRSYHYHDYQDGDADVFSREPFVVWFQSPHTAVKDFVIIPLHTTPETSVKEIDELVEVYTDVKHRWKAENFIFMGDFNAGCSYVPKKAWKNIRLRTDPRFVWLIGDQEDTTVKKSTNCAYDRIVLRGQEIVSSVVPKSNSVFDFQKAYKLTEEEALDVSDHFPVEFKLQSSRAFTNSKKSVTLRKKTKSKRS

**Q.** “GTGTTCGGACTCTGCCTCAAGACGGTAGTCAACGTGCTTG (double strand) [FITC 40-mer dsDNA]” was tested. Which Kd (Dnase1) did it give?
**A.** The Kd was 2.9 µM.

B1: FAM 40-mer dsDNA (dsDNA)
DNA 1: GTGTTCGGACTCTGCCTCAAGACGGTAGTCAACGTGCTTG
DNA 2: CAAGCACGTTGACTACCGTCTTGAGGCAGAGTCCGAACAC
**Q.** Which Kd [1] does the source give for B1 here?
**A.** The Kd was 4.9 µM.

B2: FITC 40-mer dsDNA (dsDNA)
DNA 1: GTGTTCGGACTCTGCCTCAAGACGGTAGTCAACGTGCTTG
DNA 2: CAAGCACGTTGACTACCGTCTTGAGGCAGAGTCCGAACAC
**Q.** B2 was tested. Which Kd (Dnase1L3 R132A) did it give?
**A.** The Kd was 4.95 µM.

**Q.** What about the Kd (Dnase1L3 WT) of the same molecule?
**A.** Its Kd is 0.99 ± 0.33 µM.
